Data published in paper doi:10.1101/2023.12.18.572191, “Broadly neutralizing antibody induction by non-stabilized SARS-CoV-2 Spike mRNA vaccination in nonhuman primates” (bioRxiv, 2023).

Molecular target: T1, SARS-CoV-2 S HexaPro Protein (SARS-CoV-2, Wuhan-Hu-1, stabilised)
T1 construct: also called Hexapro spike; SARS-CoV-2 spike ectodomain
Assay: cryo-EM structure
Conditions: both partners purified

B1: DH1338 antigen-binding fragment (Fab) (Fab, V domains shown)
VH: QLQLQESGPGLVKPSETLSLTCAVSGGSISRKNWSWIRQPPGKGLGWIGRISGSGGSTDYNPSLKSRVTISTDTSKNQFSLKLSSVTAADTAVYYCARVAYYEDDYGYYYTEGAFDFWGQGLRVTVSS
VL: EIVMTQSPATLSLSPGERATLSCRTSQSVSSYVAWYQQKPEQTPRLLIYDASSRATGIPDRFSGGGSGTDFTLTISSLEPEDFAVYYCQQYSNWPWTFGQGTKVEIK
notes: also called DH1338 Fab
stoichiometry N: 3
